For 6 molecules, EC50 (read off the curve) and IC50 (read off the curve) results are on record in patent US20220259306A1.

Changes are numbered by the printed parent chain.

In general, EC50 (read off the curve) refers to the midpoint of the concentration-response curve. A high value points to a need for much substance.

B1: Mab033 (antibody, V domains shown)
VH: EVQLQQSVAEFVRPGASVRLSCTASGFNIENTYIHWLKQRPEQGLEWIGRIDPANGDTQYDPKFQGKATLTAATSSNTAYLQLSGLTSEDTAIYYCTRYGDYLFYYSLKYWGQGTSVTVSS
VL: DIVMTQAAPSVSVTPGESVSISCRSSKSLLHSNGNTYLYWFLQRPGQSPQLLIYRMSNLASGVPDRFSGSGSGTAFTLRISRVEAEDVGVYYCMQHLESPYTFGGGTKLEIK
B2: Mab032 (antibody, V domains shown)
VH: EVQLQQSVAELVRPGASVRLSCTGSGFNIENTYMHWLKQRPEQGLEWIGRIDPADGDTQYAPKFQGKATITTDTSSNTAYLQLSSLTSEDTAIYYCARYGNYLFYYSMDYWGQGTSVTVSS
VL: B1 VL with S12P, G73A, V90I, S99Y
B3: Mpb416 (antibody, V domains shown)
VH: QVQLQQSVAELVRPGASVKLSCTASGFNIQNTYIHWVKQRPEQGLEWIGKIDPANGDTKYAPTFQGKATITADTSSNTAYLQLSSLTPEDTAIYYCARYRDYLFYYALGYWGQGTSVTVSS
VL: B1 VL with A7S, S12P, S99Y
B4: Mab031 (antibody, V domains shown)
VH: B2 VH with E30Q, M34I, L37V, D55N, Q59K, T72A, A97T, F104Y, M108L
VL: B1 VL with S12P, V88M, S99Y
B5: M15-5 (antibody, V domains shown)
VH: QVQLVQSGAEVKKPGASVKVSCKASGFNIQNTYIHWVKQAPGQGLEWIGKIDPANADTKYAPTFQGRATITADTSTNTAYLELSSLRSEDTAVYYCARYRDYLFYYALGYWGQGTTVTVSS
VL: DIVMTQSPLSLPVTPGEPASISCRSSKSLLHSNANTYLYWYLQKPGQSPQLLIYRMSNLASGVPDRFSGSGSGTDFTLKISRVEAEDVGVYYCMQHLEYPYTFGQGTKLEIK
B6: M15 (antibody, V domains shown)
VH: B3 VH with G56A
VL: B1 VL with A7S, S12P, G34A, S99Y

The target of the first assay is human NKG2A/CD94 on the cell surface (CHOk1-hNKG2A/CD94 stable cell line) (human) (UniProt P26715). The assay can be described thus: FACS on CHOK1-hNKG2A/CD94 cells, Alexa 488 secondary antibody.
B1 had an EC50 (read off the curve) of 0.8 nM. For B2, the EC50 (read off the curve) was determined as 0.8 nM. In turn, B3 had an EC50 (read off the curve) of 0.7 nM. Still for that read-out and setting: next, B4: 0.8 nM.

A further assay has the same target. The assay can be described thus: FACS on CHOK1-hNKG2A/CD94 cells.
B5 registered an EC50 (read off the curve) of 1 nM.

B6 returned a half-maximal effective concentration (EC50 (read off the curve)) of 0.8 nM.

The next assay has the same target. The experiment in a line: FACS blocking assay: HLA-E-PE binding to CHOk1-hNKG2A/CD94 cells in the presence of the antibody.
Regarding B1, the IC50 (read off the curve) is 1 nM. On the same count and under the same terms, next, B2: 1 nM; B4: 1 nM.
